The source of these data is US20210388087A1 (Chugai, published 2021).

Substitutions are numbered along the chain they refer to. Numbers in names are those of the source.

Sequences and labels used below:
T1: Human CD3eg linker (human)
T1 construct: Single chain: epsilon and gamma subunits of human CD3 joined by a 29-mer linker, Flag-tag at the C-terminus; also called recombinant human CD3
T1 chain: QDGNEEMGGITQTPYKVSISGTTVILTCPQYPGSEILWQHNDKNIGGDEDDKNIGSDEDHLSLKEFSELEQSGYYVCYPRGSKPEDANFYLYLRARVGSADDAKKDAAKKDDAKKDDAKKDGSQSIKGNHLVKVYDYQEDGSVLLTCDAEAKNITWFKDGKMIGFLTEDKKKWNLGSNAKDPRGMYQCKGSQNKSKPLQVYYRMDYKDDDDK

B1: H183/L072 VH N53T (antibody, name in Kabat numbering, V domains shown)
VH: QVQLVESGGGLVQPGRSLRLSCAASGFTFSNAWMHWVRQAPGKGLEWVAQIKDKGTAYAAYYAPSVKGRFTISRDDSKNSIYLQMNSLKTEDTAVYYCHYVHYASASTVLPAFGVDAWGQGTTVTVSS
VL: DIVMTQSPLSLPVTPGEPASISCQASQELVHMNRNTYLHWYQQKPGQAPRLLIYKVSNRFPGVPDRFSGSGSGTDFTLKISRVEAEDVGVYYCAQGTSVPFTFGQGTKLEIK
B2: H183/L072 VH N53Y (antibody, name in Kabat numbering, V domains shown)
VH: B1 VH with T56Y
VL: B1 VL
B3: H183/L072 VH S30K (antibody, name in Kabat numbering, V domains shown)
VH: B1 VH with S30K, T56N
VL: B1 VL
B4: H183/L072 VH P61M (antibody, name in Kabat numbering, V domains shown)
VH: B1 VH with T56N, P64M
VL: B1 VL
B5: H183/L072 VH Q50K (antibody, name in Kabat numbering, V domains shown)
VH: B1 VH with Q50K, T56N
VL: B1 VL
B6: H183/L072 VH Q50D (antibody, name in Kabat numbering, V domains shown)
VH: B1 VH with Q50D, T56N
VL: B1 VL
B7: H183/L072 VH S30M (antibody, name in Kabat numbering, V domains shown)
VH: B1 VH with S30M, T56N
VL: B1 VL
B8: H183/L072 VH Q50L (antibody, name in Kabat numbering, V domains shown)
VH: B1 VH with Q50L, T56N
VL: B1 VL
B9: H183/L072 VH N53V (antibody, name in Kabat numbering, V domains shown)
VH: B1 VH with T56V
VL: B1 VL
B10: H183/L072 VH S30A (antibody, name in Kabat numbering, V domains shown)
VH: B1 VH with S30A, T56N
VL: B1 VL
B11: H183/L072 VH S30D (antibody, name in Kabat numbering, V domains shown)
VH: B1 VH with S30D, T56N
VL: B1 VL
B12: H183/L072 VH P100eL (antibody, name in Kabat numbering, V domains shown)
VH: B1 VH with T56N, P111L
VL: B1 VL
B13: H183/L072 VH Q50W (antibody, name in Kabat numbering, V domains shown)
VH: B1 VH with Q50W, T56N
VL: B1 VL
B14: H183/L072 VH Q50R (antibody, name in Kabat numbering, V domains shown)
VH: B1 VH with Q50R, T56N
VL: B1 VL
B15: H183/L072 VH Q50H (antibody, name in Kabat numbering, V domains shown)
VH: B1 VH with Q50H, T56N
VL: B1 VL
B16: H183/L072 VH P61L (antibody, name in Kabat numbering, V domains shown)
VH: B1 VH with T56N, P64L
VL: B1 VL
B17: H183/L072 VH N53W (antibody, name in Kabat numbering, V domains shown)
VH: B1 VH with T56W
VL: B1 VL
B18: H183/L072 VH Q50N (antibody, name in Kabat numbering, V domains shown)
VH: B1 VH with Q50N, T56N
VL: B1 VL
B19: H183/L072 VH Q50F (antibody, name in Kabat numbering, V domains shown)
VH: B1 VH with Q50F, T56N
VL: B1 VL
B20: H183/L072 VH Q50V (antibody, name in Kabat numbering, V domains shown)
VH: B1 VH with Q50V, T56N
VL: B1 VL
B21: H183/L072 VH S30N (antibody, name in Kabat numbering, V domains shown)
VH: B1 VH with S30N, T56N
VL: B1 VL
B22: H183/L072 VH Q50A (antibody, name in Kabat numbering, V domains shown)
VH: B1 VH with Q50A, T56N
VL: B1 VL
B23: H183/L072 VH Q50I (antibody, name in Kabat numbering, V domains shown)
VH: B1 VH with Q50I, T56N
VL: B1 VL
B24: H183/L072 VH Q50E (antibody, name in Kabat numbering, V domains shown)
VH: B1 VH with Q50E, T56N
VL: B1 VL
B25: H183/L072 VH S30E (antibody, name in Kabat numbering, V domains shown)
VH: B1 VH with S30E, T56N
VL: B1 VL
B26: H183/L072 VH P61A (antibody, name in Kabat numbering, V domains shown)
VH: B1 VH with T56N, P64A
VL: B1 VL
B27: H183/L072 VH P100eM (antibody, name in Kabat numbering, V domains shown)
VH: B1 VH with T56N, P111M
VL: B1 VL
B28: H183/L072 VH S30H (antibody, name in Kabat numbering, V domains shown)
VH: B1 VH with S30H, T56N
VL: B1 VL
B29: H183/L072 VH Q50G (antibody, name in Kabat numbering, V domains shown)
VH: B1 VH with Q50G, T56N
VL: B1 VL
B30: H183/L072 VH P100eA (antibody, name in Kabat numbering, V domains shown)
VH: B1 VH with T56N, P111A
VL: B1 VL
B31: H183/L072 VH Q50Y (antibody, name in Kabat numbering, V domains shown)
VH: B1 VH with Q50Y, T56N
VL: B1 VL
B32: H183/L072 VH Q50S (antibody, name in Kabat numbering, V domains shown)
VH: B1 VH with Q50S, T56N
VL: B1 VL
B33: H183/L072 VH S30I (antibody, name in Kabat numbering, V domains shown)
VH: B1 VH with S30I, T56N
VL: B1 VL
B34: H183/L072 VH S30G (antibody, name in Kabat numbering, V domains shown)
VH: B1 VH with S30G, T56N
VL: B1 VL
B35: H183/L072 VH Q50T (antibody, name in Kabat numbering, V domains shown)
VH: B1 VH with Q50T, T56N
VL: B1 VL
B36: H183/L072 VH S30L (antibody, name in Kabat numbering, V domains shown)
VH: B1 VH with S30L, T56N
VL: B1 VL
B37: H183/L072 VH Q50P (antibody, name in Kabat numbering, V domains shown)
VH: B1 VH with Q50P, T56N
VL: B1 VL
B38: H183/L072 VH P61I (antibody, name in Kabat numbering, V domains shown)
VH: B1 VH with T56N, P64I
VL: B1 VL
B39: H183/L072 VH Q50M (antibody, name in Kabat numbering, V domains shown)
VH: B1 VH with Q50M, T56N
VL: B1 VL
B40: H183/L072 VH S30P (antibody, name in Kabat numbering, V domains shown)
VH: B1 VH with S30P, T56N
VL: B1 VL
B41: H183/L072 VH P100eI (antibody, name in Kabat numbering, V domains shown)
VH: B1 VH with T56N, P111I
VL: B1 VL
B42: H183/L072 VH S30F (antibody, name in Kabat numbering, V domains shown)
VH: B1 VH with S30F, T56N
VL: B1 VL

The target in the assay is T1, Human CD3eg linker. Nature of the assay: Biacore SPR, vs template H183/L072. (In general: SPR reads the build-up and loss of mass on a sensor chip optically.)
B1: the “fold change of affinity” value came to 0.6 fold.
With B2 the figure was 0.9 fold; with B3, 0.9 fold.
As to B4, the “fold change of affinity” value was 1.8 fold.
As to B5, the “fold change of affinity” value was determined as 0 fold.
With B6 the figure was 0 fold; with B7, 0.7 fold; with B8, 0.2 fold.
Turning to B9, the “fold change of affinity” value stood at 0.5 fold.
With B10 the figure was 0.8 fold; with B11, 1 fold; with B12, 1.3 fold.
Take B13: the “fold change of affinity” value stood at 0 fold.
Regarding B14, the “fold change of affinity” value is 0 fold.
With B15 the figure was 0.3 fold; with B16, 1.8 fold.
For B17 the value was 1.2 fold.
For B18 the value was 0 fold.
B19: the “fold change of affinity” value was 0.3 fold.
With B20 the figure was 0 fold; with B21, 0.7 fold; with B22, 0 fold.
With B23 the figure was 0.4 fold; with B24, 0 fold.
With B25 the figure was 0.6 fold; with B26, 1.9 fold; with B27, 1.8 fold.
For B28, the “fold change of affinity” value is 1 fold.
With B29 the figure was 0 fold.
With B30 the figure was 1.2 fold; with B31, 0.9 fold; with B32, 0 fold.
With B33 the figure was 0.8 fold; with B34, 1.1 fold.
With B35, the “fold change of affinity” value is 0 fold.
For B36 the value was 0.8 fold; for B37, 0 fold; for B38, 1.8 fold.
With B39 the figure was 0.1 fold.
With B40 the figure was 0.3 fold; with B41, 1.4 fold; with B42, 1 fold.
